From patent US6312941 come the findings set out here.

Assay [1] concerns the target wild-type murine JAK2 (expressed in COS cells from pRK5) (murine).
For assay [2] the target is unchanged. The source holds these as a separate data set.

Regarding “Myc-tagged SH2-Bβn (truncated at amino acid 555, lacks the SH2 domain)”, the tyrosine phosphorylation of JAK2 (αJAK2 immunoprecipitate, anti-PY blot, densitometry normalised to JAK2) in assay [1] was found to be 90%.

Turning to “HA-tagged SH2-Bβc (expressed in COS cells)”, the tyrosyl phosphorylation of JAK2 (αMyc immunoprecipitate, anti-phosphotyrosine blot) in assay [2] was determined as 3 fold.
